Experimental data as given in the DeepSol protein solubility set.

Test: soluble on expression in E. coli; label from the status in PepcDB or PDB records

Sequence | soluble on expression in E. coli
MVQEQMKLTGTLEGHTGWVTQIATYTRNDKTTVLSSSRDKTILVWDVDSVAPVDEGPIGRPVRSLTGHNHFVSDVVISSDGQFALSGSWDKTLRLWDLNQGVSTRQFISHTKDVLSVAFSADNRQIVSGSRDKSIKLWNTLAQCKYTITDDCHTDWVSTVRFSPSNRDPVIVSAGWDKVVKVWNLGNCRLKTNHIGHTGYVNTVTVSPDGSLCASGGKDGQAMLWDLNEGKHLYTLPGNDVINAMSFSPNRYWLCAAVGSSIKIWDLEDKKEIEELKPEIASSGSSRGSSPQCISLAWSQDGQTLFAGYTDNIIRVYQVSIRASN | not soluble
MKLTTLGSWGAYPYQDAGTTSYLVTGHDGFQLLMDAGSRALNELEKEISPLDLDAVIISHYHPDHVADLGVLRHYFQLYPKHLWQPKVLPIYGHDEDRNEFAKLSIPDVSEGRAYDVTGVEQIGSFDITFLKTVHPVVCYAFRIVERATGQVLVFTGDSGYFEGLADFAKEADLFLADVYLYEGNENHMAHLTSKEAGLMASQAGVKKLVLTHMPPVPPDGINSKNHLEVLRQETQAYAGNIPVDLALPHKSWNLGSLS | not soluble
MDPLSAASKIAGSGLEVQSTRLRIVSENIANARSTGDTPGADPYRRKTVTFGSELDHVSGVERVKVKKLGVDRGDFVHEYDPGNPAADTNGMVKMPNVNVLIEMADMREANRSYDANLQVIRQTRDLVASTIDLLKASQ | not soluble
MALVLTFLGKGGVGRTTVAIAAAKKLAQAGQRVLVLGQDPSLAWQWGITLSETAQGVEANVDGLLLSSTHLLERGWEKLKEVEAQYLRSPALKNIYGEELGVLPGMDEVLVLNALREYELSGRYDVLIYDGPGNLSTLRMLGIPEIASWYWRRFQKVLADSEVVQTLSPFVQPVASAVLSVNWSPDQMLNHPDGPQNLLQQGKAAIADPNRFAAYLVTSTDSLAQKAAQSYWGGAQQVGVTVKGVIQTPLGNGSLDANLFDPLLIAALPSYNQGNWQPLMDALPNPQAMGSAPRPLEIDVNARQVKVFLPGFDKRQVKLTQSGPELTIEAGDQRRNIDLPGNLRGKGVTGAKFQGGYLIVSFLEHHHHHH | not soluble
GFVEPHVHPLIASIMLPNEIIAPYDWVLPHTVKKGVQDHDSYLKAVTKSVNENANKDEVYFIWGYHQLWHGELNRDILNNISKDKPIAIIHRSFHEIFLNDAAISKLGIKKSDFANNPQVYWEKGHFYEGGWFALVPMMASELLAPKKYLQGLAMMSELVEKNGITTIGEPGFPSSSFDTEYTLLKQEMDTKPPFDIFLIPNGTQLYGMKGSNENALTFMNSLPEKYNTSNIQFLPKQVKLFADGAIYSQLMQMKDGYIDGHKGEWITPLALFQQQLDFYWDRDFKIHTHANGDLGIQEVMGFVSKAQKRTPRKDHRFTLHHMGYFDDTQAQQVADLQIDASVNPYYLWALADKYAEHGLGKERGENLVRMKSLTDRGVHLSFHSDFSMAPMEPLTLAWTAVNRITSQGSKFSQAQRLDMYTAMKAITIGAARVLSQEHKIGSIKKGKTANFTILAENPFKVEPIALKDIDIITTVFRGTLSKPLH | not soluble
MKLLSTYRLQPMKFSEIRNRLDYFVELGVTHLYLSPVLKARPGSTHGYDVVDYNTINDELGGEEEYIRLIDEAKSKGLGIIQDIVPNHMAVHHTNWRLMDVLKKGRHSRYYNYFDFYEEEEKIRIPILGDRNFKITYVNDEPYLDYYGNLFPINDEGRNYLNDIEKLLKVQYYELVDWRDYPSYRRFFAVNELIAVRQELEWVFEDSHSKILSFEVDGYRIDHIDGLFKPEEYLRRLKNKIGNKHIFVEKILSIGEKLRWDFIDGTTGYDFLNYSNLLFTDNEDKMTEIYKNILDIDLDELVKETKKKIIDTLFKHDIERISMMLGVNYEEIKEFLSCLKVYRTYITENDFRDEEIIRNCSQKVYESMKKNVTAFMKLQQYMPAVFAKAYEDTVLFIYNRLISLNEVGSDLHYYSISCDKFHEFNLKRVGTLSFNATSTHDTKFSEDVRMRISAISEIPDEWAKKVNEWHNILNPNIDKNDEYRLYQTIVGSFDGFNNEYKERLKAHMIKALREAKVHTDWVNVNTEYEKKMTYLIDKMFNNEKFMESFLEFESKIDKMGKVKSLSLVALKITSPGVADFYQGLENFRYLLTDPDNRRPVVFSELPKRYEEGLFNNGRIKAYVTKVLLNLRKSMKDFFINSEYKPLKLQKGLCGFMRGDKVLVIVKTLNRDYDIEIDGEYTDVITDETVRGRVKVDKLPLILVK | soluble
MKILLVFDFDNTIIDDNSDTWIVQCAPNKKLPIELRDSYRKGFWTEFMGRVFKYLGDKGVREHEMKRAVTSLPFTPGMVELFNFIRKNKDKFDCIIISDSNSVFIDWVLEAASFHDIFDKVFTNPAAFNSNGHLTVENYHTHSCNRCPKNLCKKVVLIEFVDKQLQQGVNYTQIVYIGDGGNDVCPVTFLKNDDVAMPRKGYTLQKTLSRMSQNLEPMEYSVVVWSSGVDIISHLQFLIKD | not soluble
MSEKGFSGGCQCGAVRFHAGKLGRPSICHCRMCQKHFGNFFGALVTADQAHLAWTRGQPTLFRSSARIHRGFCNKCGTPLTYHYPGGVEIAIGAFDHPEQIEPQAQVNIHKRMPWIEQLFSKPAIEQSVDEAEITSYQHPDHDTATWPPEGP | not soluble
GAMEPKASCPAAAPLMERKFHVLVGVTGSVAALKLPLLVSKLLDIPGLEVAVVTTERAKHFYSPQDIPVTLYSDADEWEMWKSRSDPVLHIDLRRWADLLLVAPLDANTLGKVASGICDNLLTCVMRAWDRSKPLLFCPAMNTAMWEHPITAQQVDQLKAFGYVEIPCVAKKLVCGDEGLGAMAEVGTIVDKVKEVLFQHSGFQQS | soluble
MGSDKIHHHHHHMSPSIYPKSNYPDAAILSRLAQQIKGWGKALGFARVGICDTDLTSEEIKLQTWLDKGYHGEMAYMASHGMMRARPQELHPGTVRVISVRMDYLPPEAGFATNLTDPNLGYISRYAGGRDYHKLIRARLKKLGDHISAELIALGFDAADFRPFVDSAPVLERPLAEKAGIGWTGKHSLILNHDSGSWFFLGELFINLPLPVDIPIQEACNTCVACMTSCPTGAIVEPYVVDGRRCISYLTIELQGAIPEEFRPLMGNRIYGCDDCQLVCPINRQAPLTTEIDFHIRPQLKQPDLLSLFAWSEAEFLKQTEGSAIRRIGHKRWLRNIAVALGNAPANPIILEALTNRQESADVDEMVLEHIQWAIDAQQSRLAASNTLVQQKSRRQTARMVRIIEKGLPRDA | not soluble
MAHHHHHHMTILSLHGRNGADAQKWFESGLLPFPGGQKSFEMVSVMPALVYHHCMLYWAKLGCAALLQEGSVEMTGKAGSETLMFVVRNICCIQIAESPRCLPNWRLLDRVLDELLKRLDFVANCEDGVWSFASTTMRRMQCYLRSNIIRYLEVRDRPLEGQCGLLRYRGAFDCAINGVNSSGASGMGGCQTTDEVHVEVLSAETLRSAVQVMCGCDGVKVPCGDSSGGVKDGADALADLELEEFFCRYFLCSAPAAFDQPTKPTVRE | not soluble
MSSNAQAIAGLEDRSAIPPTALKATLDHRLGEAAPSDYAKTLLASADAPTLRHLLGLGDAAVMDTGSGKNLDADLLDGYHGTYYLQWRNLQNTPQTYPPSAHQHASSDIPELASQLDTLVKKTGSLMTGSLQSQGTLIGDALGNGRIPALKIGNDCEFWDNNIPYAATFRSGTSPAIAQLFFGTSNHCYFGTSTKNTSTVIGAKTGLLWIETAGNYYYQQHDTTHVAFYKKNGGHAFFWRRSDSGGSGSTNEVQLMALEDNGNLSVKGTIVSAGGYAQGSSRKLKDIEGPLPYGLAEIEQLTPLIGRYKPSYTPDGRRRLFLEAEQLLDLMPETVNPEGIPFQGAYVPSVNLDQLLPVLVNAIAQLSAKVNALTDAPRHAEKLEHHHHHH | not soluble
MGSDKIHHHHHHPEQIEKYPSIYPDYIGVTIPATIAPMNFSYTDTSYERIDVIVKGHQGKEVHINAKHVNFPEKEWKQLLNSNQGDSLLFTVSIKQKGKWSTYKPFPMYISPHPIDYGLVYRKIAPGYEVYSRMGIYERDLSSHKERPLVENTLVKGMCVNCHAFNRTDPSHFSLHIRGTHGATFMRTGNKDEYLNTKTDQTIAACVYPYWHPGGEYIAYSTNNTRQSFHTVKDERVEVLDLESDVVVYHPADHHLLLCDSLQKKDRFETFPAFSPDGRTLYFCSAEAKKIPEEYKEIRYNLCSIDFDPSTGTFGSRIDTLVNAEALGKSVSFPRPSYDGKYIMFTLSDYGNFSIWHKEANLWLLDLTSGDLRELSEVNSDDTESFHNWSSNSRWFVFSSRRGDGLYTRLYLASMDENGKISKPFLLPQEDPETYYDRSVYSYNVPDFVNAPILLDTKVFEKRITSKERIQVQVGN | not soluble
MGSDKIHHHHHHMIVGFAGKLYKNYEKDGIELLKEVTDEALDIAGLNYADVDGIMANIGRGSFHGNRTYLNPPAQISEYFGIKPKIIEHVQYGGPSVLSMIYRAYKAIKAGDAETILCIQGGKISHLRDNHFQKTDIIDSPFDEYIKIYDQMSPISDYAMVAYRHSKLFGTTDEQRARIAVIQRYNASYNPKALFRNPITVEDVLKSRIVSYPLHLLEIVYPIDGFHVFVVSKRSSKSALRNIDILAYGEAHWPNPPAEWDDIIYTPTTESAKRASFDLNRVDAFQLYDSFTITVMLQMEDIGLVEKGKVGQFVESHDLSFKGDVPINTGGGSLNTGQPAYMSGGVILEEALLQLNDMANGHQVKGANVIFLNGIGWWSRRHSVTLVLGERK | not soluble
MTDFLEIRPLTKEAFTPFGDVIETTPSSMRHINGGQTERHHALSAPEAAGEGARIILNIFRGQPRVFPHKIDMMERHPLGSQSFSPLSGRPFLVVVAQDDGGRPARPQVFLARGDQGVNYRRNVWHYPLMPLQAVSDFLVADREGPGNNLEEYFFDEPFMIAEPSLAAALEHHHHHH | soluble
APMKLYGAVMSWNLTRCATALEEAGSDYEIVPINFATAEHKSPEHLVRNPFGQVPALQDGDLYLFESRAICKYAARKNKPELLREGNLEEAAMVDVWIEVEANQYTAALNPILFQVLISPMLGGTTDQKVVDENLEKLKKVLEVYEARLTKCKYLAGDFLSLADLNHVSVTLCLFATPYASVLDAYPHVKAWWSGLMERPSVQKVAALMKPSA | soluble
QVQLQESGGGLVQAGGSLRLSCTASRRTGSNWCMGWFRQLAGKEPELVVALNFDYDMTYYADSVKGRFTVSRDSGKNTVYLQMNSLKPEDTAIYYCAARSGGFSSNRELYDGWGQGTQVTVSS | soluble
MCPRTSCRFYPFTIDFGTFRMAIIHAKSMTIPTSKLVAFSDKFLQNLRCFNCAVMDIVKNDATLPLGHLEEYTPGNRIGNWIGPVKGINIPSHLKADFRKSQPLSITRSVREAEWCTPFINCTQYYICINHLFAERIATKLRQVMGHTMISNCVSLLYLTGDFRRSSRFSGPIESANITSNLEEHCWHSIVLDFFDFICINSMRAIIEGKYQCFRRFITKYLMFAFFNWYRISFENSIIMQNHFTCVRTTQMRHVVIPLFTLNKDSSITIKRNRPSNFLIVVALNLICLEHHHHHH | not soluble
MKITLIIPTYNAGSLWPNVLDAIKQQTIYPDKLIVIDSGSKDETVPLASDLKNISIFNIDSKDFNHGGTRNLAVAKTLDADVIIFLTQDAILADSDAIKNLVYYFSDPLIAAVCGRQLPHKDANPLAVHARNFNYSSKSIVKSKADIEKLGIKTVFMSNSFAAYRRSVFEELSGFPEHTILAEDMFMAAKMIQAGYKVAYCAEAVVRHSHNYTPREEFQRYFDTGVFHACSPWIQRDFGGAGGEGFRFVKSEIQFLLKNAPFWIPRALLTTFAKFLGYKLGKHWQSLPLSTCRYFSMYKSYWNNIQYSSSKEIKLEHHHHHH | soluble
